In the test the target is PnpM-His6 (C-terminal His-tagged PnpM, LysR-type transcriptional regulator of Pseudomonas sp. strain WBC-3) (Pseudomonas sp. strain WBC-3). In words: SEC; analytical gel filtration of PnpM-His6 on Hiload Superdex 200 pg (1.6 x 60 cm); 10 mM Tris-HCl pH 7.5, 0.1 M NaCl, 5% glycerol; 0.5 ml/min; buffer with or without PNP; native mass from a calibration curve of standard proteins. Background: Size exclusion chromatography separates by hydrodynamic size, large species first.

For the substance “PnpM-His6 (C-terminal His-tagged PnpM, LysR-type transcriptional regulator of Pseudomonas sp. strain WBC-3) (natural protein)”, the stoichiometry N (usually a count of units in the complex or per binding partner) worked out at 4.

The values above are taken from article PMC5603801.
